Test results published in publication PMC3418412.

Key:
purified Hsp90-Y313E = purified Hsp90-Y313E (UniProt P07900)
purified wild type Hsp90 = purified wild type Hsp90 (UniProt P07900)

purified AHA1 protein (from UniProt O95433 1-338) (natural protein)
Kd (purified Hsp90-Y313E): 3.7 µM
Kd (purified wild type Hsp90): 13 µM
